Results published in publication PMC3212630.
Like-named read-outs stand apart in the source and are kept apart here.

T1: rCsrABb (carbon storage regulator A) (Borrelia burgdorferi, UniProt O51202 1-81)
T1 sequence: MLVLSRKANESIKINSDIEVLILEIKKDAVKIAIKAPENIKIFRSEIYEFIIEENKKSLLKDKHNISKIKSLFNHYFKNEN


Experiments:
[1] = target: T1, rCsrABb (carbon storage regulator A); test: EMSA
[2] = target: T1, rCsrABb (carbon storage regulator A); test: EMSA; remark: listed apart in the source

Binder | binding result [1] | binding result [2]
GCAAAAGGAUUUGCCAAAGUCAGAAUUUAAAUUUUAUCAUGGAGGAAUGA (ssRNA) [flaB leader probe, wild type (P10, flaBp)] | binds | –
GCAAAAAAAUUUGCCAAAGUCAGAAUUUAAAUUUUAUCAUAAAGGAAUGA (ssRNA) [flaB leader probe, BS1 BS2 mutated (P13)] | – | no binding
